{
  "source": "patent US20210106646A1",
  "about": "“Combination Of A Novel Topical Gel And Oral Supplements For Healing Diabetic Foot And Other Wounds” (Smart Products & Services Inc. (dba Aloevive), priority 2019, published 2021)",
  "origin": "cited, not measured here",
  "settings": "topical use, per product website",
  "data": [
    {"substance": "Regranex Gel: Regranex (becaplermin) Gel is a recombinant human platelet-derived growth factor used to treat lower extremity diabetic ulcers", "values": [
      {"measurement": "rare but serious side effects", "value": "allergic reactions such as rash, itching, swelling (especially of the face/tongue/throat), dizziness, and trouble breathing"}
    ]}
  ]
}
